According to article PMC8200828, “Phylogenetic and Structural Analysis of NIN-Like Proteins With a Type I/II PB1 Domain That Regulates Oligomerization for Nitrate Response” (Frontiers in Plant Science, 2021):

Assays:
[1] = target: the molecule itself; assay: dynamic light scattering; protein at 2 mg/mL, after SEC, 25 °C; self-association
[2] = target: the molecule itself; assay: SEC; Superdex S-75 in buffer C (20 mM Tris pH 8.8, 0.5 M NaCl, 10% glycerol, 5 mM GSH, 1 mM TCEP), calibrated with gel filtration standard markers; self-association

B1: Arabidopsis thaliana NLP7 (AtNLP7) PB1 domain, wild type (domain or fragment, UniProt Q84TH9 863-945, looked up)
chain: TVTIKASYKDDIIRFRISSGSGIMELKDEVAKRLKVDAGTFDIKYLDDDNEWVLIACDADLQECLEIPRSSRTKIVRLLVHDV
notes: NIN-like protein 7 (AtNLP7), Arabidopsis thaliana, PB1 domain at the C-terminus of AtNLP7; PCR-amplified from plasmid pDL2Nx-NLP7 PB1 with the printed primers PB1-EcoRI and PB1-HindIII, subcloned into pET28a; A thrombin cleavage site follows the N-terminal His6 tag; no cleavage step is described and the purified protein is called 6xHis-NLP7 PB1 (15.6 kDa); also called NLP7 PB1wt; 6xHis-NLP7 PB1 …
**Q.** What does the source list for B1?
**A.** stoichiometry N [1]: 4; stoichiometry N [2]: 2
